Assay results from patent US7648964B2, “Use of lacritin in promoting ocular cell survival” (University of Virginia Patent Foundation, priority 2004, dated 2010).

Experiments:
[1] = system: HSG cells; experiment: Calcium mobilization imaging in HSG cells (Fluo-4); type: cell-based, human
Experimental: Cells were seeded at 1.4×10^4 HSG cells/mm^2 or 0.7×10^4 HSG cells/mm^2 on Matrigel-coated (100 μg/ml; BD Biosciences; San Diego Calif.) coverslips to respectively achieve 70-80% confluency after overnight or 48 h growth in 6-well plates containing phenol red-free Dulbecco's modified Eagle's medium with 10% fetal calf serum.
Other cells were incubated (0.7×10^4HSG cells/mm^2 overnight plating) with 100 ng/ml pertussis toxin (Calbiochem; San Diego Calif.) in phenol red-free Dulbecco's modified Eagle's medium with 10% fetal calf serum; or vehicle alone). Cells were washed with calcium-free/phenol red-free Hanks basic salt solution, 20 mM N-2-hydroxyethylpiperazine-N′-2-ethane sulfonic acid and then incubated for 1 h at room temperature with the same solution containing fluo-4 μM at 4 μM (FluoroPure grade [Molecular Probes; Eugene Oreg.] dissolved in DMSO plus 20% Pluronic F-127). Cells were washed three times for 60 min at room temperature with calcium-free/phenol red-free Hanks basic salt solution with 5 mM Ca^2+ or 5 mM EGTA. Temperature was stabilized for 5 min at 37° C. coverslips were placed on the stage of a TE-200 epifluorescent microscope (Bio-Rad Radiance2100 confocal/multiphoton system using Plan Fluor 60×NA 1.4 Oil IR objective lens [Bio-Rad, Hercules Calif.] as part of the W. M. Keck Center for Cellular Imaging, University of Virginia), subjected to a 488 nm argon laser light source with emission at 528 nm. Baseline monitoring was followed by addition of lacritin or deletion fragments in phenol red-free Hanks basic salt solution.

[2] = system: FAS/APO-1; experiment: Antibody array screen, salivary ductal cells; type: cell-based, human; conditions: lacritin 10 ng/ml, 1 minute; tyrosine phosphorylation as gauge
Experimental: (§1) Lacritin's function in cell survival was first assessed in an antibody array screen. Serum-free cultures of salivary ductal cells were treated either with recombinant lacritin at 10 ng/ml or an equal volume of 1×PBS (dialysis medium for recombinant lacritin) for 1 minute.

[3] = system: bcl-2; experiment: Antibody array screen, salivary ductal cells; type: cell-based, human; conditions: lacritin 10 ng/ml, 1 minute; tyrosine phosphorylation as gauge
Experimental: as §1

[4] = system: p42 and p44 MAPK (MAPK1 and MAPK3); experiment: p42/p44 MAPK activation blot in HSG cells; type: cell-based, human
Experimental: For phosphotyrosine blotting and mitogenesis assays, cells in serum-containing media were seeded overnight in 24-well plates at a density of 0.5×10^5 cells/mm^2 corresponding to 20-30% confluency after cell attachment, incubated in serum-free media without supplements for 24 h (phosphotyrosine) or washed with serum-free media without supplements three times (mitogenesis) and incubated with lacritin (1-1000 nM), or positive controls EGF (1.6 nM) and 10% fetal bovine serum, or negative controls bovine serum albumin or no additive in serum-free media without supplements for the indicated times (phosphotyrosine) or 30 h (mitogenesis). […] After washing, bound antibodies were detected with peroxidase-labeled secondary antibody and ECL. […] Incorporation was stopped with ice-cold phosphate buffered saline and followed by addition of cold and then room temperature trichloracetic acid (10%) for 10 min each, washing of cells with phosphate buffered saline, solubilization with 1 N sodium hydroxide, neutralization with 1 N hydrochloric acid, addition of scintillation fluid and then quantitation in a scintillation counter. […] Seventy-two hours post-transfection, mitogenesis was assessed by co-addition of 10 […] lacritin and [^3H]-thymidine (2 mCi/ml) (Amersham, Piscataway N.J.) for 24 hrs. […]

[5] = biological target: T1, syndecan-1 (Homo sapiens, UniProt P18827); experiment: Pull down binding assay with lysates of transfected cells
T1 construct: expressed in transfected cells; host or cells: HEK293 (syndecan-1); E. coli ER2566 (lacritin-intein)
T1 sequence (P18827 23-310): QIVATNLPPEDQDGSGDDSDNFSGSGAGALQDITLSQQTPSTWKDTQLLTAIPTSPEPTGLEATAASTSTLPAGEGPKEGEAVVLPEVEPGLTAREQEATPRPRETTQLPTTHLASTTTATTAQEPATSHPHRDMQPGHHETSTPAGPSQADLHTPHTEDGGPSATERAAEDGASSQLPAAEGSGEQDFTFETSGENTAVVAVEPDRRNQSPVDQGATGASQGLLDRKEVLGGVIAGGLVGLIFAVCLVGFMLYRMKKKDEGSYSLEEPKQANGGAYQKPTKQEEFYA
From the text: Biotinylated cell surface proteins were applied to lacritin affinity columns. After washing extensively in physiological salt-containing buffer, bound protein was eluted with 1 M NaCl, and identified with avidin-peroxidase using an ECL blot method. In controls, columns lacking lacritin were used. […] 293T cells stably transfected with human syndecan-2 or −4 were kindly provided by Dr. Atsushi Utani (Chiba University). A series of lacritin C-terminal and N-terminal deletion mutants were generated. Pull down binding assays involved incubation of intein-tagged lacritin or intein deletion mutants with lysates of untransfected or transfected cells followed by precipitation and SDS PAGE. Immunolocalization of syndecan-1 in human lacrimal glands was performed using anti-human syndecan-1 antibody (CD138).

## Cn1c2ccccc2c2c3c(c4c5ccccc5n(CCC#N)c4c21)CNC3=O [Go 6976]
[1]; Example 4
  effect on Ca++ signaling after lacritin stimulation: suppress Ca++ signaling
[1]; U73122 1 μM, Go 6976 1 μM, even at 10 μM
  effect on carbachol-stimulated calcium mobilization: unaffected
[1]; preincubation: pertussis toxin 100 ng/ml, U73122 1 μM, Go 6976 1 μM, or siRNA
  effect on lacritin-stimulated calcium mobilization: completely inhibited

B1: lacritin: recombinant human lacritin from E. coli; mature 119 residue fragment (SEQ ID NO:10) of native lacritin SEQ ID NO:4 (protein, listed as Homo sapiens)
chain: EDASSDSTGADPAQEAGTSKPNEEISGPAEPASPPETTTTAQETSAAAVQGTAKVTSSRQELNPLKSIVEKSILLTEQALAKAGKGMHGGVPGGKQFIENGSEFAQKLLKKFSLLKPWA
[2]
  change in FAS/APO-1 levels: −81%
[3]
  increase in bcl-2 tyrosine phosphorylation: 11%
[4]
  activation of p42 and p44 MAPK: no activation
[1]; 10 nM
  calcium mobilization: promotes calcium mobilization
[1]; 10 nM lacritin
  calcium mobilization in EGTA-containing medium: mobilized internal calcium
[1]; lacritin 10 nM
  time to calcium mobilization after addition: ≤ 30 s
[5]
  binding to mammalian syndecan-1: bound
